Results on 66 substances are retold here after US20160279215A1, “NOVEL PEPTIDES AND COMBINATION OF PEPTIDES FOR USE IN IMMUNOTHERAPY AGAINST VARIOUS TUMORS” (immatics biotechnologies GmbH, priority 2015, published 2016).

The target in this assay is T1, HLA-A*02:01 (Homo sapiens, UniProt P04439, D140Y/D185E/D98H/E176V/E277Q/G131W/G231S/I119V/I121R/I166T/I218V/L300P/L318F/N151K/N90K/P208A/P217A/Q86G/Q94H/R138H/R169H/T345S).
T1 construct: made in house
The assay is described as follows: MHC binding assay: UV-ligand exchange with β2m ELISA (peptide exchange yield). Particulars: binding to HLA-A*02:01 evaluated by peptide exchange yield (UV-ligand exchange, β2m ELISA). The source says:
Candidate peptides for T cell based therapies according to the present invention were further tested for their MHC binding capacity (affinity). The individual peptide-MHC complexes were produced by UV-ligand exchange, where a UV-sensitive peptide is cleaved upon UV-irradiation, and exchanged with the peptide of interest as analyzed. Only peptide candidates that can effectively bind and stabilize the peptide-receptive MHC molecules prevent dissociation of the MHC complexes. To determine the yield of the exchange reaction, an ELISA was performed based on the detection of the light chain (β2m) of stabilized MHC complexes. The assay was performed as generally described in Rodenko et al. (Rodenko et al., 2006).
96 well MAXISorp plates (NUNC) were coated over night with 2 ug/ml streptavidin in PBS at room temperature, washed 4× and blocked for 1 h at 37° C. in 2% BSA containing blocking buffer. Refolded HLA-A*02:01/MLA-001 monomers served as standards, covering the range of 15-500 ng/ml. Peptide-MHC monomers of the UV-exchange reaction were diluted 100 fold in blocking buffer. Samples were incubated for 1 h at 37° C., washed four times, incubated with 2 ug/ml HRP conjugated anti-β2m for 1 h at 37° C., washed again and detected with TMB solution that is stopped with […]. Absorption was measured at 450 nm. Candidate peptides that show a high exchange yield (preferably higher than 50%, most preferred higher than 75%) are generally preferred for a generation and production of antibodies or fragments thereof, and/or T cell receptors or fragments thereof, as they show sufficient avidity to the MHC molecules and prevent dissociation of the MHC complexes.

On to “204 (SEWGSPHAAVP; listed as Homo sapiens) [compound 204]”, for which the Peptide exchange result is “+++ (≧50 = +++)”.

With “226 (SLAGNLQEL; listed as Homo sapiens) [compound 226]”, the Peptide exchange result is “+++ (≧50 = +++)”.

On to “76 (FTAEFLEKV; listed as Homo sapiens) [compound 76]”, for which the Peptide exchange result is “+++ (≧50 = +++)”.

For “51 (LDSEALLTL; listed as Homo sapiens) [compound 51]”, the Peptide exchange entry was “++ (≧20% = ++)”.

“149 (NMADGQLHQV; listed as Homo sapiens) [compound 149]”: the Peptide exchange entry is reported as “++ (≧20% = ++)”.

On to “79 (TVLEEIGNRV; listed as Homo sapiens) [compound 79]”, for which the Peptide exchange entry is given as “++ (≧20% = ++)”.

Take “103 (YLADTVQKL; listed as Homo sapiens) [compound 103]”: the Peptide exchange result is on record as “++ (≧20% = ++)”.

“188 (VLGEEQEGV; listed as Homo sapiens) [compound 188]”: the Peptide exchange result was “++ (≧20% = ++)”.

On to “244 (NVAEIVIHI; listed as Homo sapiens) [compound 244]”, for which the Peptide exchange result was “+++ (≧50 = +++)”.

For the substance “139 (IILENIQSL; listed as Homo sapiens) [compound 139]”, the Peptide exchange result was “+++ (≧50 = +++)”.

In the case of “146 (VVAAHLAGA; listed as Homo sapiens) [compound 146]”, the Peptide exchange result is on record as “++ (≧20% = ++)”.

For “237 (ALLEQTGDMSL; listed as Homo sapiens) [compound 237]”, the Peptide exchange entry is on record as “+++ (≧50 = +++)”.

Take “39 (YLEDGFAYV; listed as Homo sapiens) [compound 39]”: the Peptide exchange result is reported as “+++ (≧50 = +++)”.

“270 (TLLTFFHEL; listed as Homo sapiens) [compound 270]”: the Peptide exchange result is reported as “+++ (≧50 = +++)”.

Regarding “23 (ALLSPLSLA; listed as Homo sapiens) [compound 23]”, the Peptide exchange entry was “+++ (≧50 = +++)”.

For “84 (FLLEREQLL; listed as Homo sapiens) [compound 84]”, the Peptide exchange entry was “++++ (≧75% = ++++)”.

As to “86 (SLFSNIESV; listed as Homo sapiens) [compound 86]”, the Peptide exchange result is recorded as “+++ (≧50 = +++)”.

For the substance “162 (GLLGNLLTSL; listed as Homo sapiens) [compound 162]”, the Peptide exchange result was “+++ (≧50 = +++)”.

For the substance “1 (KLQEKIQEL; listed as Homo sapiens) [compound 1]”, the Peptide exchange result is reported as “++++ (≧75% = ++++)”.

Turning to “99 (TLFGIQLTEA; listed as Homo sapiens) [compound 99]”, the Peptide exchange entry is “+++ (≧50 = +++)”.

In the case of “178 (SLVSWQLLL; listed as Homo sapiens) [compound 178]”, the Peptide exchange result is on record as “++++ (≧75% = ++++)”.

As for “122 (SIIDTELKV; listed as Homo sapiens) [compound 122]”, the Peptide exchange entry is “+++ (≧50 = +++)”.

For “175 (SLLDLVQSL; listed as Homo sapiens) [compound 175]”, the Peptide exchange entry is given as “+++ (≧50 = +++)”.

Turning to “72 (VLSTRVTNV; listed as Homo sapiens) [compound 72]”, the Peptide exchange entry is recorded as “++ (≧20% = ++)”.

Turning to “228 (SLLELDGINLRL; listed as Homo sapiens) [compound 228]”, the Peptide exchange entry was “+++ (≧50 = +++)”.

Regarding “112 (ILAQDVAQL; listed as Homo sapiens) [compound 112]”, the Peptide exchange entry is on record as “+++ (≧50 = +++)”.

For “116 (ALLSSVAEA; listed as Homo sapiens) [compound 116]”, the Peptide exchange entry was “++ (≧20% = ++)”.

Regarding “61 (ALYPKEITL; listed as Homo sapiens) [compound 61]”, the Peptide exchange result is given as “+++ (≧50 = +++)”.

As for “192 (TLLPSSGLVTL; listed as Homo sapiens) [compound 192]”, the Peptide exchange entry is given as “++ (≧20% = ++)”.

In the case of “60 (YLFSQGLQGL; listed as Homo sapiens) [compound 60]”, the Peptide exchange entry was “+++ (≧50 = +++)”.

Turning to “173 (RLIDIYKNV; listed as Homo sapiens) [compound 173]”, the Peptide exchange entry is recorded as “+++ (≧50 = +++)”.

With “94 (YLDEVAFML; listed as Homo sapiens) [compound 94]”, the Peptide exchange entry was “+++ (≧50 = +++)”.

For “131 (SLYPHFTLL; listed as Homo sapiens) [compound 131]”, the Peptide exchange result is “+++ (≧50 = +++)”.

Turning to “210 (GLAGDNIYL; listed as Homo sapiens) [compound 210]”, the Peptide exchange result is listed as “+++ (≧50 = +++)”.

On to “229 (YLYELEHAL; listed as Homo sapiens) [compound 229]”, for which the Peptide exchange entry is reported as “++ (≧20% = ++)”.

Turning to “216 (ALSTVTPRI; listed as Homo sapiens) [compound 216]”, the Peptide exchange result is listed as “++ (≧20% = ++)”.

“176 (VQSGLRILL; listed as Homo sapiens) [compound 176]”: the Peptide exchange entry is reported as “++ (≧20% = ++)”.

Consider “62 (SLVENIHVL; listed as Homo sapiens) [compound 62]”, for which the Peptide exchange entry was “+++ (≧50 = +++)”.

As to “239 (VIIKGLEEITV; listed as Homo sapiens) [compound 239]”, the Peptide exchange entry is “+++ (≧50 = +++)”.

Take “110 (QIQGQVSEV; listed as Homo sapiens) [compound 110]”: the Peptide exchange entry is on record as “++ (≧20% = ++)”.

For the substance “53 (AQHLSTLLL; listed as Homo sapiens) [compound 53]”, the Peptide exchange result is on record as “+ (≧10% = +)”.

As for “170 (FIAAVVEKV; listed as Homo sapiens) [compound 170]”, the Peptide exchange entry is “++ (≧20% = ++)”.

With “95 (KLIDEDEPLFL; listed as Homo sapiens) [compound 95]”, the Peptide exchange entry was “+++ (≧50 = +++)”.

For the substance “108 (FIANLPPELKA; listed as Homo sapiens) [compound 108]”, the Peptide exchange entry was “+++ (≧50 = +++)”.

Consider “222 (LLTGVFAQL; listed as Homo sapiens) [compound 222]”, for which the Peptide exchange result is given as “++ (≧20% = ++)”.

On to “36 (TVLQELINV; listed as Homo sapiens) [compound 36]”, for which the Peptide exchange entry is recorded as “+++ (≧50 = +++)”.

In the case of “69 (LKVLKADVVL; listed as Homo sapiens) [compound 69]”, the Peptide exchange entry was “++ (≧20% = ++)”.

On to “34 (TLNTLDINL; listed as Homo sapiens) [compound 34]”, for which the Peptide exchange result was “+++ (≧50 = +++)”.

With “161 (NLLDENVCL; listed as Homo sapiens) [compound 161]”, the Peptide exchange result is recorded as “++++ (≧75% = ++++)”.

With “30 (IITEVITRL; listed as Homo sapiens) [compound 30]”, the Peptide exchange result was “+++ (≧50 = +++)”.

As for “107 (RVLPGQAVTGV; listed as Homo sapiens) [compound 107]”, the Peptide exchange entry is “++ (≧20% = ++)”.

“283 (ALSELLQQV; listed as Homo sapiens) [compound 283]”: the Peptide exchange result is on record as “+++ (≧50 = +++)”.

Regarding “63 (KLLPMVIQL; listed as Homo sapiens) [compound 63]”, the Peptide exchange result is “+++ (≧50 = +++)”.

As to “285 (MLLDTVQKV; listed as Homo sapiens) [compound 285]”, the Peptide exchange result was “+++ (≧50 = +++)”.

Consider “91 (LLPSIFLMV; listed as Homo sapiens) [compound 91]”, for which the Peptide exchange entry is reported as “++ (≧20% = ++)”.

With “199 (SVADLAHVL; listed as Homo sapiens) [compound 199]”, the Peptide exchange entry was “++ (≧20% = ++)”.

Regarding “208 (HLNNDRNPL; listed as Homo sapiens) [compound 208]”, the Peptide exchange entry is on record as “++ (≧20% = ++)”.

For the substance “26 (VLDGKVAVV; listed as Homo sapiens) [compound 26]”, the Peptide exchange result is recorded as “+++ (≧50 = +++)”.

As for “24 (KVWSDVTPL; listed as Homo sapiens) [compound 24]”, the Peptide exchange result was “+++ (≧50 = +++)”.

As for “67 (FLIENLLAA; listed as Homo sapiens) [compound 67]”, the Peptide exchange entry was “+++ (≧50 = +++)”.

As to “141 (NIDINNNEL; listed as Homo sapiens) [compound 141]”, the Peptide exchange result is recorded as “++ (≧20% = ++)”.

“137 (KLIYKDLVSV; listed as Homo sapiens) [compound 137]”: the Peptide exchange result is “++ (≧20% = ++)”.

Consider “180 (RLYEEEIRI; listed as Homo sapiens) [compound 180]”, for which the Peptide exchange entry is “+++ (≧50 = +++)”.

In the case of “87 (KLLSLLEEA; listed as Homo sapiens) [compound 87]”, the Peptide exchange entry is given as “+++ (≧50 = +++)”.

In the case of “191 (AAIEIFEKV; listed as Homo sapiens) [compound 191]”, the Peptide exchange result is recorded as “+++ (≧50 = +++)”.

As to “258 (QLVQRVASV; listed as Homo sapiens) [compound 258]”, the Peptide exchange result is “++ (≧20% = ++)”.
